Target: BACE1-GFP (UniProt P56817)
Assay: co-IP

UniProt P56817, sequence (P56817 46-501): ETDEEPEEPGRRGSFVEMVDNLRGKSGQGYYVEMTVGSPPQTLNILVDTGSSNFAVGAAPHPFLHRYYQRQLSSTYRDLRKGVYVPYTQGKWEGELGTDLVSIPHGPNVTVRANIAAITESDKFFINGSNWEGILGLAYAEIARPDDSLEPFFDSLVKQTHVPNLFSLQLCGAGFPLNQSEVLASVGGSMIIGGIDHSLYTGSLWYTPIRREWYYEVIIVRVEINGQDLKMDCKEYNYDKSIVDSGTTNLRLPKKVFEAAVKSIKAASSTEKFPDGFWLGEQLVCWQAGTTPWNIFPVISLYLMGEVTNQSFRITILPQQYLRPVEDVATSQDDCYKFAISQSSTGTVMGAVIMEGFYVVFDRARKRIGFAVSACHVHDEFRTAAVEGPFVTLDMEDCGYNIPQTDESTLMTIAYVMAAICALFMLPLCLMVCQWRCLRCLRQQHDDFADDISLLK

percent reduction of co-immunoprecipitated Bin1 against Bin1-WT: 65%
Substance: Bin1-KR (siRNA-resistant neuronal Bin1-MYC with the LOAD mutation K358R, rs138047593) (from UniProt O08539-1 1-588) (natural protein)

Source: PMC8413894
